Experimental findings from article PMC4200255 are described below.

For this assay, the target named is recombinant purified protein HSP70-1A (UniProt P0DMV8).
UniProt P0DMV8, sequence (P0DMV8 whole entry): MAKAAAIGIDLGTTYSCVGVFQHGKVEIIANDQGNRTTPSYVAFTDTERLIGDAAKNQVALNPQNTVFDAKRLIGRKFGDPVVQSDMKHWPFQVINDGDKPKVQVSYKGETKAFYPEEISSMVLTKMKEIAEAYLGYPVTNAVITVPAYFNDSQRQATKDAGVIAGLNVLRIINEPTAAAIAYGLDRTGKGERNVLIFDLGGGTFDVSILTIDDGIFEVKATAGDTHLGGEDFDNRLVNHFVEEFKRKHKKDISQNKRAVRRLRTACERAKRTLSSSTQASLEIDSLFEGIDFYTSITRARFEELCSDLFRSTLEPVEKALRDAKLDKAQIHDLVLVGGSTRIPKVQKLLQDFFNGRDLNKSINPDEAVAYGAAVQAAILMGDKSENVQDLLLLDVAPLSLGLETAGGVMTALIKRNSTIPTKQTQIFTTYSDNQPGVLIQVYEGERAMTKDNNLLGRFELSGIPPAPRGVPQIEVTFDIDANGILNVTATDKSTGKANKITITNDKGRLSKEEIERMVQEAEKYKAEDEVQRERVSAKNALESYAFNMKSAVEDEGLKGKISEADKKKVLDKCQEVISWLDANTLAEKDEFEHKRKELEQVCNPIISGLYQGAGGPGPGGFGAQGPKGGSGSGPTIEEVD

B1: 24-mer peptide of the serotonin transporter C terminus (peptide)
peptide: RLIITPGTFKERIIKSITPETPTE
Consider B1, for which the stimulation of the ATPase activity of 0.7 μM HSP70 by 500 μM peptide (malachite green, 37 °C) turned out to be 4 fold.

B2: 20-mer peptide of the serotonin transporter C terminus (lacks the first 4 amino acids RLII) (peptide)
peptide: TPGTFKERIIKSITPETPTE
As for B2, the stimulation of the ATPase activity of 0.7 μM HSP70 by 500 μM peptide (malachite green, 37 °C) was 2 fold.
